From the DeepSol protein solubility set

Test: soluble on expression in E. coli; label from the status in PepcDB or PDB records

Sequence	soluble on expression in E. coli
MELDFDKMNGLVPAIIQDNETRKVLMLGFMNKEAYDKTVETGKVTFFSRTKNRLWTKGEESGNFLHVVSIKADCDNDTLLIQADPAGPVCHTGTDTCWGEKNEEPVMFLKALQDFIDKRHEEMPQGSYTTSLFESGINKIAQKVGEEAVETVIEATNGTNERLIYEGADLIYHMIVLLTSKGYRIEDLARELQERHSSTWKKH	not soluble
MSLDYQGYLIDLDGTIYLGKEPIPAGKRFVERLQEKDLPFLFVTNNTTKSPETVAQRLANEFDIHVPASLVYTATLATIDYMKEANRGKKVFVIGEAGLIDLILEAGFEWDETNPDYVVVGLDTELSYEKVVLATLAIQKGALFIGTNPDKNIPTERGLLPGAGSVVTFVETATQTKPVYIGKPKAIIMERAIAHLGVEKEQVIMVGDNYETDIQSGIQNGIDSLLVTSGFTPKSAVPTLPTPPTYVVDSLDEWTFEGHHHHHH	soluble
MSEVNKKVQDGVDDYLEEEDFGQLLEAFDKSREEATTEGVIVEIKNDEVYVDIGKKSEGILALSEIQGDNSKLLFNVGDSIKVAVMGSRGGRSLLSHKKALRKEKVIEFIKNYQENQDDIFTVKVVGKNKGGLIVVDENDVEFFLPKSQYGFKETNNIIGKTFKVKIIKIDKDEQSIIVSRKKTLDDERRKRKELINNVAQQEDLIEGIVKKITTYGMFVDVGGVDGLVHYSEISYKGPVNPGTLYKEGDKVPVKVIKYDKERKHLSLSIKAALPDPWSEIKDTLDIGDTIKVIVSNIEPYGAFVDLGNDIEGFLHISEISWDKNIKNPKDYINKGQEIDVEVIEINPNERRLRVSLRNLLSRPFDEFMKSYKIADVVEGEITSVTSFGAFVKLGGIEGLLHNEDASWDRNDKCKDKFSQGDKIKVKIIKIDEENQKISLSTKELSSSPVQEYAKIHKVGDIVKGAIRDIKDFGVFVELSKNVDALIHKEDISTSMLENLKIGDDIEAAIVFIDEKKNRIRLSVKNLVRIKEREVLNEINNDDKVTLGDIIKDQLALEHHHHHH	soluble
MGSDKIHHHHHHMQLDKYTAKKIVKRAMKIIHHSVNVMDHDGVIIASGNSTRLNQRHTGAVLALRENRVVEIDQALAQKWNFEAQPGINLPIHYLGKNIGVVGISGEPTQVKQYAELVKMTAELIVEQQALLEQESWHRRYKEEFILQLLHCNLNWKEMEQQAKFFSFDLNKSRVVVLIKLLNPALDNLQNLINYLEQSEFAQDVAILSLDQVVVLKTWQNSTVLSAQMKTLLPADYSKQDYKIAVGACLNLPLFEQLPLSFQSAQSTLSYGLKHHPRKGIYVFDEHRLPVLLAGLSHSWQGNELIKPLSPLFSEENAILYKTLQQYFLSNCDLYLTAEKLFVHPNTLRYRLNKIEQITGLFFNKIDDKLTLYLGTLLEH	not soluble
MSNLPFHQFCGTEGYVASRALQDVVNVAIALERPLLLKGEPGTGKTLLAYHIAKALGMEIILWNVKSTTKARDGLYTYDTVQRLNDARFGDGDVRDIRHYIKLGPLGRAFGSAERVVLLIDEVDKADIEFPNDLLFELDEMRFHVLETDEWVSAAHRPVVIVTSNSEKELPDAFLRRCVFHYIDFPDETQMRAIIDVHFPDLPAELMRSACKVFYGLREVPGLRKRPSTSELLDWIRVLLASGARLPEEETPALQSVPFLGALVKIQEDADILAHHASRSADVRTAGRRFFRLEHHHHHH	not soluble
GAEKEDLVQEGILGLLKAIKFYDETKSSFSSFAFLCIRREMISAIRKANTQKHMVLNEALKTNAILEDSAYFDDEGHNINNYKSSESNPEEAYLLKEEIEEFKKFSENNFSKFEKEVLTYLIRGYSYREIATILSKNLKSIDNTIQRIRKKSEEWIKEEENIKR	soluble
MAHHHHHHMSSTVTGQAIPKLFPKAFHSWVGTGRIFNFLAPYEQNRVIAYLNSIYNTAPLFKWSLSIVPLYGIVSGYPPVEKIDFNSSAALCATGMVWFVYALLIQPQNSGSRSLALVNICLATVNGYNCYRSAQHKRRQAVNANRIE	not soluble
MHHHHHHSSGVDLGTENLYFQSMPRARPGGNRVTVVLGAQWGDEGKGKVVDLLAQDADIVCRCQGGNNAGHTVVVDSVEYDFHLLPSGIINPNVTAFIGNGVVIHLPGLFEEAEKNVQKGKGLEGWEKRLIISDRAHIVFDFHQAADGIQEQQRQEQAGKNLGTTKKGIGPVYSSKAARSGLRMCDLVSDFDGFSERFKVLANQYKSIYPTLEIDIEGELQKLKGYMEKIKPMVRDGVYFLYEALHGPPKKILVEGANAALLDIDFGTYPFVTSSNCTVGGVCTGLGMPPQNVGEVYGVVKAYTTRVGIGAFPTEQDNEIGELLQTRGREFGVTTGRKRRCGWLDLVLLKYAHMINGFTALALTKLDILDMFTEIKVGVAYKLDGEIIPHIPANQEVLNKVEVQYKTLPGWNTDISNARAFKELPVNAQNYVRFIEDELQIPVKWIGVGKSRESMIQLF	soluble
